Biological target: T1, PD-L1 on PD-L1-positive cancer cells and tissues (human, UniProt Q9NZQ7 19-290)
T1 construct: whole, on cells; also called PD-L1 tumor antigen; CD274
Test: flow cytometry on cancer cell lines

T1 sequence (Q9NZQ7 19-290): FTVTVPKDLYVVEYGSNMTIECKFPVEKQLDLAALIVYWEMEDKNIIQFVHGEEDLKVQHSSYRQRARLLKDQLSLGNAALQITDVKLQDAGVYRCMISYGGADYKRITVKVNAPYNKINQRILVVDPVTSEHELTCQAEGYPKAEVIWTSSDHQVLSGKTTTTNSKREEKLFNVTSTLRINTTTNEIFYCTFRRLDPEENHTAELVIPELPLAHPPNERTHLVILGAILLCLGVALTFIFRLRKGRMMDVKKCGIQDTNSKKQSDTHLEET

binding result: binds
B1: mouse monoclonal anti-human PD-L1 antibody (hybridoma clone 7D2A10) (antibody, V domains shown)
VH: QIQLVQSGPELKNPGETVKISCKASGYTFTNYGMNWVKQAPGKGLKWMGWINTHTGEPTYADDFKGRFAFSSETSASSAYLQINNLKNDDMATYFCAKGTHREEIPAWFAYWGQGTLVTVSA
VL: DVLMTQTPLSLPVSLGDQASISCRSSQSIVHSNGNTYLEWYLQKPGQSPELLIYKVSNLFSGVPDRFSGSGSGTDFTLKISRVEAEDLGVYYCFQGSHVPPTFGAGTKLELKR
notes: also called Promab anti-PD-L1; PD-L1 monoclonal antibody

Source: patent publication US20230227557A1 (PROMAB BIOTECHNOLOGIES, published 2023)
